The source of these data is US20250066503A1, “CELL INJURY INDUCING THERAPEUTIC DRUG FOR USE IN CANCER THERAPY” (CHUGAI SEIYAKU KABUSHIKI KAISHA, priority 2016, published 2025).

Substitutions are numbered along the chain they refer to. Where “and” joins values, the source holds several entries; their conditions need not be identical. Equal values may be shown once.

The test has as its target T1, soluble human CD3 epsilon chain (human, UniProt P07766 23-126).
T1 construct: also called CD3ε
The test can be described thus: SPR. Background: Surface plasmon resonance follows binding to a sensor surface in real time, without labels.

T1 sequence (P07766 23-126 limits assumed): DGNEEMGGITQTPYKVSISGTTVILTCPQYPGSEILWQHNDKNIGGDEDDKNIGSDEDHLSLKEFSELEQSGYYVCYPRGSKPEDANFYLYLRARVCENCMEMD

B1: TR01H082-E22Hh/none-Hi-Kn010G3/L0222-k0 (antibody, V domains shown)
VH: QVQLVESGGGLVQPGRSLRLSCAASGFTFSNAWMHWVRQAPGKGLEWVAQIKDKSQNYATYYAESVKGRFTISRDDSKNSLYLQMNSLKTEDTAVYYCRYVHYAAGYGVDAWGQGTTVTVSS
VL: DIVMTQSPLSLPVTPGEPASISCRSSQSPVHSNRNTYIQWYQQKPGQAPRLLIYKVSNRFSGVPDRFSGSGSGTDFTLKISRVEAEDVGVYYCYQGTQVPYTFGQGTKLEIKR
notes: one-arm
The molecule B1 came in with a Kd of 101 nM.

B2: hCE115HA-E22Hh/none-Hi-Kn010G3/L0000-k0 (antibody, human IgG1, kappa, L234A L235A, N297A, V domains shown)
VH: B1 VH with L11V, D53A, Q56N, A104G, G106Y
VL: B1 VL with P29L, I38L, Q39H, Y94G
notes: one-arm; also called hCE115HA-E22Hh//-Hi-Kn010G3/L0000-k0
Take B2: the Kd was 143 nM and 124 nM.

B3: TR01H083-E22Hh/none-Hi-Kn010G3/L0011-k0 (antibody, V domains shown)
VH: B1 VH with Q56N, D75A, L81I, A111I
VL: B1 VL with S28P, P29L, I38L, Q39H, Y94G
notes: one-arm
B3 gave a Kd of 6.7 nM.

B4: TR01H096-E22Hh/none-Hi-Kn010G3/L0011-k0 (antibody, V domains shown)
VH: B1 VH with T60G
VL: B1 VL with S28P, P29L, I38L, Q39H, Y94G
notes: one-arm
Molecule B4 came in with a Kd of 74.7 nM.

B5: hCE115HA-E22stHh/none-Hi-stKn010G3/L0000-k0 (antibody, V domains shown)
VH: B1 VH with L11V, D53A, Q56N, A104G, G106Y
VL: B1 VL with P29L, I38L, Q39H, Y94G
notes: one-arm
The molecule B5 returned a Kd of 51.7 nM.

B6: TR01H110-E2702GsKsc/none-Hi-E2704sE/L0011-k0 (antibody, V domains shown)
VH: B1 VH with L11V, R19K
VL: B1 VL with S28P, P29L, I38L, Q39H, Y94G
notes: one-arm
B6 had a Kd of 12.6 nM.

B7: TR01H112-E2702GsKsc/none-Hi-E2704sE/L0011-k0 (antibody, V domains shown)
VH: B1 VH with L11V, R16G, T60Q, D75A, L81I, A111I
VL: B1 VL with S28P, P29L, I38L, Q39H, Y94G
notes: one-arm
B7 returned a Kd of 5.12 nM.

B8: TR01H101-E22Hh/none-Hi-Kn010G3/L0011-k0 (antibody, V domains shown)
VH: B1 VH with T60V
VL: B1 VL with S28P, P29L, I38L, Q39H, Y94G
notes: one-arm
In the case of B8, the Kd came out at 78.7 nM.

B9: TR01H083-E22Hh/none-Hi-Kn010G3/L0222-k0 (antibody, V domains shown)
VH: B1 VH with Q56N, D75A, L81I, A111I
VL: B1 VL
notes: one-arm
For B9, the Kd came out at 9.42 nM.

B10: TR01H091-E2702GsKsc/none-Hi-E2704sE/L0011-k0 (antibody, V domains shown)
VH: B1 VH with R19K
VL: B1 VL with S28P, P29L, I38L, Q39H, Y94G
notes: one-arm
Turning to B10, the Kd came to 13.9 nM.

B11: TR01H094-E22Hh/none-Hi-Kn010G3/L0011-k0 (antibody, V domains shown)
VH: B1 VH with K67S
VL: B1 VL with S28P, P29L, I38L, Q39H, Y94G
notes: one-arm
The molecule B11 yielded a Kd of 70 nM.

B12: TR01H100-E2702GsKsc/none-Hi-E2704sE/L0011-k0 (antibody, V domains shown)
VH: B1 VH with T60S
VL: B1 VL with S28P, P29L, I38L, Q39H, Y94G
notes: one-arm
For the molecule B12, the Kd is 11.1 nM.

B13: TR01H083-E22Hh/none-Hi-Kn010G3/L0000-k0 (antibody, V domains shown)
VH: B1 VH with Q56N, D75A, L81I, A111I
VL: B1 VL with P29L, I38L, Q39H, Y94G
notes: one-arm
For B13, the affinity, expressed as Kd, was 6.83 nM.

B14: TR01H103-E22Hh/none-Hi-Kn010G3/L0011-k0 (antibody, V domains shown)
VH: B1 VH with Y62G
VL: B1 VL with S28P, P29L, I38L, Q39H, Y94G
notes: one-arm
The molecule B14 registered a Kd of 77.2 nM.

B15: TR01H090-E22Hh/none-Hi-Kn010G3/L0011-k0 (antibody, V domains shown)
VH: B1 VH with R16G
VL: B1 VL with S28P, P29L, I38L, Q39H, Y94G
notes: one-arm
Consider B15, for which the Kd was found to be 69.5 nM.

B16: TR01H102-E22Hh/none-Hi-Kn010G3/L0011-k0 (antibody, V domains shown)
VH: B1 VH with Y62F
VL: B1 VL with S28P, P29L, I38L, Q39H, Y94G
notes: one-arm
As for B16, binding was characterised by a dissociation constant (Kd) of 85.4 nM.

B17: TR01H109-E22Hh/none-Hi-Kn010G3/L0011-k0 (antibody, V domains shown)
VH: B1 VH with Y62V
VL: B1 VL with S28P, P29L, I38L, Q39H, Y94G
notes: one-arm
B17 yielded a Kd of 70.6 nM.

B18: TR01H111-E2702GsKsc/none-Hi-E2704sE/L0011-k0 (antibody, V domains shown)
VH: B1 VH with L11V, R16G, R19K, D75A, L81I, A111I
VL: B1 VL with S28P, P29L, I38L, Q39H, Y94G
notes: one-arm
Consider B18, for which binding was characterised by a dissociation constant (Kd) of 4.91 nM.

B19: TR01H108-E22Hh/none-Hi-Kn010G3/L0011-k0 (antibody, V domains shown)
VH: B1 VH with Y62T
VL: B1 VL with S28P, P29L, I38L, Q39H, Y94G
notes: one-arm
B19 registered a dissociation constant Kd of 69.8 nM.

B20: TR01H107-E22Hh/none-Hi-Kn010G3/L0011-k0 (antibody, V domains shown)
VH: B1 VH with Y62Q
VL: B1 VL with S28P, P29L, I38L, Q39H, Y94G
notes: one-arm
The molecule B20 returned a Kd of 69.1 nM.

B21: TR01H084-E22Hh/none-Hi-Kn010G3/L0000-k0 (antibody, V domains shown)
VH: B1 VH with L11V, R16G, D75A, L81I, A111I
VL: B1 VL with P29L, I38L, Q39H, Y94G
notes: one-arm
B21: the Kd amounted to 21.3 nM.

B22: TR01H106-E22Hh/none-Hi-Kn010G3/L0011-k0 (antibody, V domains shown)
VH: B1 VH with Y62P
VL: B1 VL with S28P, P29L, I38L, Q39H, Y94G
notes: one-arm
Molecule B22 came in with a dissociation constant (Kd) of 100 nM.

B23: TR01H083-E22Hh/none-Hi-Kn010G3/L0212-k0 (antibody, V domains shown)
VH: B1 VH with Q56N, D75A, L81I, A111I
VL: B1 VL with S25P, I38L, Q39H
notes: one-arm
Take B23: the Kd amounted to 0.0586 nM.

B24: TR01H084-E22Hh/none-Hi-Kn010G3/L0201-k0 (antibody, V domains shown)
VH: B1 VH with L11V, R16G, D75A, L81I, A111I
VL: B1 VL with S28P, I38L, Q39H, Y94G
notes: one-arm
Molecule B24 yielded a Kd of 16.5 nM.

B25: TR01H114-E2702GsKsc/none-Hi-E2704sE/L0011-k0 (antibody, V domains shown)
VH: B1 VH with L11V, R16G, T60S, D75A, L81I, A111I
VL: B1 VL with S28P, P29L, I38L, Q39H, Y94G
notes: one-arm
Regarding B25, binding was characterised by a dissociation constant (Kd) of 4.22 nM.

B26: TR01H095-E22Hh/none-Hi-Kn010G3/L0011-k0 (antibody, V domains shown)
VH: B1 VH with T60F
VL: B1 VL with S28P, P29L, I38L, Q39H, Y94G
notes: one-arm
As for B26, the Kd is 90.9 nM.

B27: CE115HA251-E22Hh//-Hi-Kn010G3/L0000-k0 (antibody, human IgG1, kappa, L234A L235A, N297A, V domains shown)
VH: B1 VH with L11V, D53A, Q56N, A104Y, A105Y, G106Y
VL: B1 VL with P29L, I38L, Q39H, Y94G
notes: one-arm
B27 showed a Kd of 22.3 nM.

B28: TR01H084-E22Hh/none-Hi-Kn010G3/L0011-k0 (antibody, V domains shown)
VH: B1 VH with L11V, R16G, D75A, L81I, A111I
VL: B1 VL with S28P, P29L, I38L, Q39H, Y94G
notes: one-arm
In turn, B28 showed a Kd of 19.8 nM.

B29: TR01H104-E22Hh/none-Hi-Kn010G3/L0011-k0 (antibody, V domains shown)
VH: B1 VH with Y62I
VL: B1 VL with S28P, P29L, I38L, Q39H, Y94G
notes: one-arm
On to B29, for which the affinity, expressed as Kd, was 82.6 nM.

B30: TR01H083-E22Hh/none-Hi-Kn010G3/L0201-k0 (antibody, V domains shown)
VH: B1 VH with Q56N, D75A, L81I, A111I
VL: B1 VL with S28P, I38L, Q39H, Y94G
notes: one-arm
Molecule B30 showed a Kd of 4.42 nM.

B31: TR01H105-E22Hh/none-Hi-Kn010G3/L0011-k0 (antibody, V domains shown)
VH: B1 VH with Y62L
VL: B1 VL with S28P, P29L, I38L, Q39H, Y94G
notes: one-arm
B31 returned a Kd of 69.5 nM.

B32: TR01H091-E22Hh/none-Hi-Kn010G3/L0011-k0 (antibody, V domains shown)
VH: B1 VH with R19K
VL: B1 VL with S28P, P29L, I38L, Q39H, Y94G
notes: one-arm
In turn, B32 came in with a dissociation constant Kd of 66.7 nM.

B33: hCE115HAa-E22Hh/none-Hi-Kn010G3/L0000-k0 (antibody, V domains shown)
VH: B1 VH with L11V, R16G, D53A, Q56N, A104G, G106Y
VL: B1 VL with P29L, I38L, Q39H, Y94G
notes: one-arm
In turn, B33 returned a Kd of 108 nM.

B34: TR01H100-E22Hh/none-Hi-Kn010G3/L0011-k0 (antibody, V domains shown)
VH: B1 VH with T60S
VL: B1 VL with S28P, P29L, I38L, Q39H, Y94G
notes: one-arm
B34: the Kd worked out at 62.5 nM.

B35: TR01H098-E22Hh/none-Hi-Kn010G3/L0011-k0 (antibody, V domains shown)
VH: B1 VH with T60P
VL: B1 VL with S28P, P29L, I38L, Q39H, Y94G
notes: one-arm
B35 showed a Kd of 91.4 nM.

B36: TR01H099-E2702GsKsc/none-Hi-E2704sE/L0011-k0 (antibody, V domains shown)
VH: B1 VH with T60Q
VL: B1 VL with S28P, P29L, I38L, Q39H, Y94G
notes: one-arm
B36: the Kd was 14.6 nM.

B37: hCE115HA-G1dh//-Hi-Kn010G3/L0000-k0 (antibody, V domains shown)
VH: B1 VH with L11V, D53A, Q56N, A104G, G106Y
VL: B1 VL with P29L, I38L, Q39H, Y94G
notes: one-arm
For the molecule B37, the Kd is 65 nM.

B38: TR01H099-E22Hh/none-Hi-Kn010G3/L0011-k0 (antibody, V domains shown)
VH: B1 VH with T60Q
VL: B1 VL with S28P, P29L, I38L, Q39H, Y94G
notes: one-arm
In turn, B38 displayed a Kd of 77.4 nM.

B39: TR01H093-E22Hh/none-Hi-Kn010G3/L0011-k0 (antibody, V domains shown)
VH: B1 VH with K67Q
VL: B1 VL with S28P, P29L, I38L, Q39H, Y94G
notes: one-arm
For B39, the Kd was determined as 68 nM.

B40: TR01H092-E22Hh/none-Hi-Kn010G3/L0011-k0 (antibody, V domains shown)
VH: B1 VH with K67A
VL: B1 VL with S28P, P29L, I38L, Q39H, Y94G
notes: one-arm
In the case of B40, the Kd came to 72.1 nM.

B41: TR01H097-E22Hh/none-Hi-Kn010G3/L0011-k0 (antibody, V domains shown)
VH: B1 VH with T60L
VL: B1 VL with S28P, P29L, I38L, Q39H, Y94G
notes: one-arm
For the molecule B41, the Kd worked out at 87.6 nM.

For orientation: Kd means the concentration at which binding is half-saturated.
